Assay results as given in the RNAGym collection of RNA variant scans (doi:10.1073/pnas.2313332121).
Fewer inactive variants are shown than the library holds.

B1: TPR 5TU (parent)
chain: GGAUCUUCUCGAUCUAACAAAAAAGACAAAUCUGCCACAAAGCUUGAGAGCAUCUUCGGAUGCAGAGGCGGCAGCCUUCGGUGGCGCGAUAGCGCCAACGUUCUCAACUAUGACACGCAAAACGCGUGCUCCGUUGAAUGGAGUUUAUCAUG

Variants of: B1
Experiment: polymerase ribozyme fitness, log enrichment relative to wild type (log ratio); higher = more active; in vitro selection for triplet polymerase activity
How it was run: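 Libraries of mutants in each subunit of a heterodimeric triplet polymerase ribozyme were generated by PCR and transcribed. In triplicate, each went through one in vitro selection round: annealing with biotinylated primer, partner subunit and triplets; frozen incubation at −7 °C; gel excision of extended constructs; streptavidin-bead capture; RT-PCR. Fitness, taken from Illumina sequencing of input and output libraries, is the logarithm of a genotype's enrichment over wild-type enrichment, averaged across replicates with inverse-variance weights. The logarithm is base 2, and genotypes needed ≥10 input reads and ≥1 read per output to be kept.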

| Variant | polymerase ribozyme fitness (log ratio) |
| --- | --- |
| GGAUCUUCUCGAUCUAACAAAAUAGACAAAUCUGCCAUAAAGCUUGAGAGCAUCUUCGGAUGCAGAGGCGGCAGCCUUCGGUGGCGCGAUAGCGCCAACGUUCUCAACUAUGACACGCAAAACGCGUGCUCCGUUGAAUGGAGUUUAUCAUG | -4.06 |
| GGAUCUUCUCGAUCUAACAAAAAAGACAAAUCUGCCACAAAGCUUGAGAGCAUCUUCGAAUGCAGAGGCGGCAGCCUCCGGUGGCGCUAUAGCGCUAACGUUCUCAACGAUGACACGCAAAACGCGUGCUCCGUUGAAUCGAGUUUAUCAUG | ≤ -4.2 |
| GGAUCUUCUCGAUCUAACAAAAAAGACAAAUCUGCCACAAAGCUUGAGAGCAUCUUCGGAUGCAGGGGCGGCAGCCUUCGGUGGCGCGUUAGUGGCAACGUUCUCAACUAUGACACGCAAAACGCGUGCUCCGUUGAAUGGAGUUUAUCAUG | ≤ -4.2 |
| GGAUCUUCUCGAUCUAACAAAAAAGACAAAUCUGCCACAAAGCUUGAGAGCAUUUUCGGAUGCAGAGGCGGCAGCCUUCGGAGGCGCGAUAGCGCCAACGUUCUUAACUAUGACACGCGAAACGCGUGCUCCGUUGAAUGGAGUUUAUCAUG | 0.194 |
| GGAUCUUCUCGAUCUAACAAAAAAGACAAUUCUGCCACAAAGCGUGAGAGCCUCUUCGGAUGCAGAGGCGGCAGCCUUCGGUGGGGCGAUAGCGCCAACGUUCUCAGCUAUGACACGCAAAACGCCUGCUCCGAUGAAUGGAGUUUGUCAUG | ≤ -4.2 |
| GGAUCUUCUCGAUCUAACAAAAAAGACAAAUCUGCCACAAAGCUUGAGAGCAUCUUCGGAUGCAGAGGCGGCAGCCUUCGGUGGCGCGAUAGCUCCAACGUUCUCAACUAUGACACGCAAAACGCGUGCUCCGUUGAAUGGAGUUUAUCUUG | -0.849 |
| GGAUCUUCUCGAUCUAAGAAAAAAGACAAAUCUGCCACAAAGCUCGAGAGCAUCUUCGGAUGCAGAGGCGGCAGCCUUCGGUGGCGCGAUAGCGCUAACGUUCUCAACUAUGACAAGCAAAACGCGUGCCCCGUUGAAUGGAGUUUAUCAUG | ≤ -4.2 |
| GGAUCUUCUCGAUCUAACAAUUAAGACAAAUCUGCCACAAAGCUUGAGAGCAGCUUCGGAUGCAGAGGCGGCAGCCUUCGGUGGCGCGAUAGCGCCAACGUUCUCAACUAUGACACGCAAAACGCGUGCUCCGUUGAAUGGAGUUUAUCAUG | -0.816 |
| GGAUCUUCUCGAUCUAACAAAAAAGACAAAUCUGCCACAAAGCUUGAGAGCAUCUUCGGAUGCAGAGGCGGCAGCCUUCGGUGGCGCGAUUGCACCAACGUUCUCAACUAUGACACGCAAAACGCGUUCUCCGUUGAAUGGAGUUUAUCAUG | ≤ -4.2 |
| GGAUCUUCUCGAUCUAACAAAACAGACCAAUCUGCCACAAAGCUUAAGAGCAUCAUCGGAUGCAGAGGCGGCAGCCUUCGGUGGCGCGAUAGCGCUAACGUUCUCAACUAUGACACGCAAAACGCGUGCUCCGUUGAAUGGAGUUUAUCAUG | ≤ -4.2 |
| GGUUCUUCUCGAUCUAACAAAAAAGACAAAUCUGCCACAAAGCUUGCGAGCAUCUUAGGAUGCAGAGGCGGCAGCCUUCGGUGGCGCGAUAGCGCCAACGUUCUCAACUAUGACACGCAAAACGCGUGCUCCGUUGAAUGGAGUUUAUCAUG | -0.307 |
| GGAUCUUCUCGAUCUAACAAAAAAGACAAAUCUGCCACAACGCUUGAGAGCAUCUUCGGAUGCAGAGGCGGCAGCCUUCGGUGGCGCGAUAGGGCCAACGUUCUCAACUAUGACACGCAAAACGCGUGCUCCGUUGAAUGGAGCUUAUCAUG | -3.7 |
| GGAUCUUCUCGAUCCAACAAAAAAGACAAAUCUGCCACAAAGCUUGAGAGCAUCUUCGGAUGCCGAGGCGACAGCCUUCGGUGGCGCGAUAGCGCCAACAUUCUCAACUAUGACACGUAAAACGCGUGCUCCGUUGAAUGGAGUUUAUCAUG | ≤ -4.2 |
| GGAUCUUCUCGAUCUAGCAAAAAAGACAAAUCUGCCACAAAGCUUGAGAGCAUCUACGGAUCCAGAGGCGGCAGCCUUCGGUGGCGCGAUAGCGCCAACGUUCUCAACUAUGACACGCAAAACGCGUGCUCCGUUGAAUGGAGUUUAUCAUA | -3.06 |
| GGAUCUUCUCGAUCUAACAAAAAAGACAAAUCUGCCACACAGCUUGAGAGCAUCUUCGGAUUCAGAGGCGGCAGCCUUCGGUGGCGCGAUAGCGCCAACGUUCUCAACUAUGACACGCUAAACGCGUGCUCCGUUGAAUGGAGUUUAUCAUG | -0.408 |
| GGAUCUUCUUGAGCUAACAAAAAAGACAAAUCUGCCACAAAGCUAAAGAGCAUCUUCCGAUGUAGAGGCGGCAGCCUUCGGUGGCGCGAUAGCGCCAACGUUCUCAACUAUGACACGCAAAACGCGUGCUCCGUUGAAUGUAGUUUAUCAUG | ≤ -4.2 |
| GGAUCUUCUCGAUCUAACAAAAAAGACAAAUCUGCCACACAGCUUGAGAGCAUCUUCGGAUGCAGAGGCGGCAGCCUUCGGUGGCGCGAUAGCUGCAACGUUCUCAACUAUGACACGCAAAACGCGUGCUCCGUUGAAUGGAGUUUAUCAUG | -3.87 |
| GGAUCUUCUAGAUCUAACAAAAAAGACAAAUCUUCCACAUAGCUUGAGAGCAUCUUUGGAUGCAGAGGCGGCAGCCUGUGGUGCAGCGAUAGCGCCAACGUUCACAACUAUGACACGCACAACGCGUGCUCCGUUGAAUGGAGUUUAUCAUG | ≤ -4.2 |
| GGAUCUUCUCGAUCUAACAAAAAAGACAAAUCUGCCACAAAGCUAGAGAGUAUUUUCGGAUGCAGAGGCGGCAGCCUUCGGUGGCGCGAUAUCGCCAACGUUCUCAACUAUGACACGCAAAACGCGUGCUCCGUUGAAUGGAGUUUAUCAUG | -3.95 |

| Variant | polymerase ribozyme fitness (log ratio) |
| --- | --- |
| GGAUCUUCUCGAUCUAACAAAAAAGACAAAUCUGCCACAAAGCUUGAGAGCAUCUUCGGAUGCAGAGGCGGCAGCCUUCGGUGGCGCGACAGCGCCAACGUUCUCAACUAUGACACGCAAAACGCGUGCUCCGUUGAAUGGAGUUUUUCAUG | -3.58 |
| GGAUCUUCUCGAUCUAACAAAAAAGACAAAUCUGCCACAAAGCUUGAGAGCAUUUUCGGAUGCAGAGGCGGCAGCCUUCGGUGGCGCGAUAGCGCCAACGUUCUCAACUAUGACACGCAAAACGCGUGCUCCGUUGAAUGGAAUUUAUCAUG | -0.736 |
| GGAUCUUCUCGAUCUAACAAAAAAGACAAAUCUGCCACAAAGCUUGAGAGCAUCUUCGGAUGCAGAGGCGGCAGCCUUCGGUGGCGCGAUAGCGCCAACGUUGUCAGCUAUGACACGCAAAACGCGUGCUCCGUUGAAUGGGGUUUAUCAUG | ≤ -4.2 |
| GGAUCUUCUCGAUCUAACAAAAAAGACAAAUCUGCCACAAAGCUUGAGAGCAUCUUCGGAUGCAGAGGCGGCAGCCUUCGGUGGCGCGAUAGCGCCAACGUUCUCAACUAUGCCACGCAAAACGCGUGCUCCGCUGCAUAGAGUUUAGCAUG | ≤ -4.2 |
| GGAUCUUCUCCAUCUAACAAAAAAGACAAAUCUGCCACAAAGCUUGAGAGCAUCUUCGGAUGCAGAGGCGGCAGCCUUCGGUGGCGUGAUAGCGCCAACGUUCUCAACUAUGACACGCAAAACGCGUGCUCCGUUGAAUGGAGUUUAUCAUG | -2.7 |
| GGAUCUUCUUGAUCUAACAAAAAAGUCAAAUCUGUCACAAAGCUUGAGAGCAUUUUCGGCUGCAGAGGCGGCAGCCUUCGGUGGCGCGAUAGCGACAAUGUUGUCAACUAUGACACGCAAAACGCGUGCUCCGUUGAAUGGUGUUUAUCAUG | ≤ -4.2 |
| GGAUCUUCUCGAUCUAACAAAAAAGACAAAUCUGCCACAAAGCUUGAGUGCAUCUUCGGAUGCAGAGGCGGCGGCCUUCGCUGGUGCGAUAGCGCCAACGUUCUCAACUAUGACACGCAAAACGCGUGCUCCGUUGAAUGGAGUUUAUCAUG | -2.64 |
| GGAUCUUCUCGAUCUAACAAAAAAGACAAAUCUGCAACAAAGCUUGAGAGCAUCUGCGGAUGCAGAGGCGGCAGCCUUCGGUGGAGCGAUAGCGCCAACGUUCUCAACUAUGACACGCAAAACGCGUGCUCCGUUGAAUGGAGUUUAUCAUG | ≤ -4.2 |
| GGAUCUUCUCGAUCUAACAAAAAAGACAAAUCUGCCACAAAGCUUGAGAGCAUCUUCGGAUGCAGAGGCGGCAGCCUUGGGUGGCGCGAUAGCGUCAACGUUCUCAACUAUGACACGCAAAACGCGUGCUCCGUUGAAUGGAGUUUAUCAUG | -3.03 |
| GGAUCUUCUAGAUCUGACAAAAAAGACAAAUGUGCCACAAAGCUUGAGAACAUCUUCGGAUGCAGAGGCGGCAGCCUUCGGUGGCGCGAUAGCGCCAACGUUCUCAACUAUGACACGCAAAACGCGUGCUCCCUUGAAUGGAGUUUAUCAUG | ≤ -4.2 |
| GGAUCUUCUCGAUCUAACAAAAAAGACAAAUCUGCCACAAAGCUUGAGAGCAUCUACGGAUGCAGAGGCGGCAGCCUUCGGUGGCGCGAUACCGCCAACGUUCUCAACUAUGACACGCAAAACGCGUGCUCCGUUGAAUGGAGUUUAUCAUG | -1.7 |
| GGAUCUUCUCGAUCUAACGAAAAAGACAAAUCUGCCACAAAGCUUGAGAGCAUCUUCGGAUGCAGAGGCGGCAGCCUUCGGUCGCGCGAUAGCGCCAACGUUCUCAACUAUGACACGCAAAACGCGUGCUCCGUUGAAUGGAGUUUAUCAUG | -1.11 |
| GGAUCUUCUCGAUCUAACAAAAAAGACAAAUCUGCCACAAAGCUUGAGAGCAUCUUCGGAUGCAGAGGCGGCAGCCUUCGGUGGCGCGAUAGCGUCAACGUUCUCAACUAUGAUACGCAAAACGCGUGCUCCGUUGAAUGGAGUUUAUCAUG | -1.72 |
| GGAUCUUCUCGAUCUAACAAAAAAGACAAAUCUGCCACAAAGCUUGAGAGCAUCUUCGGAUGCAGAGGCGGCAGCCUUCGGUGGCGCGAUAGCGCCAACGUUCUCAACUAUGACACGCAAAACGCGUGCUCCGUUGAAUGGAGUUUAGCAAG | -3.95 |
| GGAUCUUCCCGAUCUAACAAAAAAGACUACUCUGCCACAAAGCUUGAGAGCAUCUUCGGAAGCAGAGGCGGCAGCCUUCGGUGGCGCAAUUACGCCAACGUUCUCAACUAUGACACGCUAAACGCGUGCUCCGUUGAAUGGAGUUUAUCAUG | ≤ -4.2 |
| GGAUCUUCUCGAUCUAACAAAAAAGACAAAUCUGCCAUAAAGCUUGAGAGCAUCUUCGGAUGCAGAGGCGGCAGCCUUCGGUGGCGCGAUAGCGCCAACGUUCUCAACUAUGACACGCAAAACGCGUGCUCCGUUUAAUGGAGUUUAUCAUG | -2.3 |
| GGAUCUUCUCGAUCUAACAAAAAAGACAAAUCUGCCACAAAGCUUGAGAGCAUCUUCGGAUGCAGAGGCGGCAGCCUUCGGCGGCGCGAUAGCACCAACGUUCUCAACUAUGACACGCAAAACGCGUGCUCCGUUGAAUGGAGUUUAUCAUG | -1.35 |
| GGAUCUUCUCGAUCUAAGAAAACAGACAGAUCUGCCACAAAGCUUGAGAGUAUCUUCGGAUGCAGAGGCGGGAGCCUUCGAUGGCGCGAUAGCGCCAACGUUCUCAACUAUGACACGCAAAACGCGUGCUCCGUUGAAUUGAGUUUAUCAUG | ≤ -4.2 |
| GGAUCUUCUCGAUCUAACAAAAAAGCCAAAUCUGCCACAAAGCUUGAGAGCAUCUUCGGAUGCAGAGGCGGCAGCCUUCGAUGGCGUCAUAGCGCCAACGUUCUCAACUAUGACACGCAAAACCCGUGCUCCGUUUAAUCGAGUUUAUCAUG | ≤ -4.2 |
